Test results from the DeepSol protein solubility set.

Experiment: soluble on expression in E. coli; label from the status in PepcDB or PDB records
In the case of “SEERLNYIVFNQNISNMANKEVRQALSYALNRNEMIESAYGKEGSVPAKSILVPEADFYTEEGVEGYDQDTNKAKDLLDKSGVKIDKLKIGYNTGRFGHKNYALVAQQELKKIGIEAEIVPYESKAFFNILFSNSTECDMYVNGYAWGLEPNPYRGMFETGQYCNQTKYSNAEIDALWEKGFTELNKEKREEIYKQIQQDISKDAPIYTIDYEQNLMAAQKNL”, the “soluble on expression in E. coli” value is reported as “not soluble”. For “MKLDPQTLAHITSATLGNYNRVADDFREGTRDHDVSQNIDALLRHIEGSAPWQILDFGCGPGRDLKTFTAMGHVAVGLDGSERFAEMARAETGCEVFQQNFLELDLPQGRFDGIFANAVLFHIPRQELPRVLRELYATLKPGGVLFSSNPRGQNQEGWQGERYGAYHDLETWRQLLTDAGFAELEHYYRPLEHHHHHH”, the “soluble on expression in E. coli” value was “soluble”. With “MSLSLRRIDHVSLRVRDVEEASRRWSAQFGLAVRERDGRRARLACDDEPYCLELLAAEAPGVEHVAYELRRSCTLEEAGRHFEGLGVPYEEHAGGLRVADPDGNRVLVLPYREPRERWVSHARAATDQIVGHPRRLGHVNFLTGRLSEGVEFYTRALGMRITDWLGEGGVWFHINADHHVMALVDKGYPHFHHLAFDVVDIGQMRVALDHLGRHGRWLGWGPVRHGIGGNIASYVRIVEEECFVELYCDMEQLEADHEVRRWPDNRFSSNTWGPLPPRSYFRFDEAAVASERESLEMLGHPLKEEVSSEGHHHHHH” the “soluble on expression in E. coli” value was “soluble”. In the case of “MDSKSHGWLIGANGTILETHDGGEHWEPRTFDFLRMDEEINYRFESISCYGNEGWIVGKPPILLHTQNGGKDWERIPLSSKLPGEPVLITALGPNRAELATTAGAIYTTDNGGKNWKALVKETIDATLNRTTSSGVTGASYYTGTVISITRDCNGYYLAISSRGNFYVTWHPGQEYWTPHPRDSSRRIQSMGFVQNDIHKGLWMANNGGFLGFSPPNPSLDTVSSIPFQRVDIRTGGYGILDVAFHQQKRNEVWASVGSGILYRSFDGGKHWEKDPWLDHLGSVLYRIKFVENSGFILGAKGTLLRYNG”, the “soluble on expression in E. coli” value is reported as “soluble”. For “MGSDKIHHHHHHMNWGKYATYSEDFFEKLTSESNQLDLYIFVQYLLHYQLSEAVDYCHQLGIALKGDIAIGIAHDSVDAWTHPELFHLDKQAGAPPDIFAVNGQNWGFPTYNWKKMAEDGYAWWKKRLTAMSNYFDAYRLDHILGFFRIWQMPEDSVRGLLGQFSPAIALSAEEIENSYGIPLRQWGLERFINPFIKDWVIDEIFGRDNRDWIIQTFLDYIGNGNYTFQNEYNNQKKVEKAQLEDWVREGLYKLHENIILLKDDENPEKYHPRISLIQTISFREFGDDYKGRLEKLYNDYFYGRNYEFWKEKAYEKLPVLKDATNMLACGEDLGMVPANVPDVMNHLNILRLIIERMPSDNRFVSPLNEVPYLSVLTTSSHDTSPLRAWWEENHEEIQRYYNEVMGWYGEAPYYASAEIIQEIVKRHLNSNAMMVILPIQDWLAMSEQLRKEDAKSEQINIPANPYHYWNYRLHCQLETLIDNQDWTEFLKKFIKESKRAY”, the “soluble on expression in E. coli” value was “not soluble”. For “MPTLSSNLKHLRLLLGRSQGEFAEQLGIAQSTLSSVERENRPPSTKLINTARFQTGVSAEYFEASIHFYAAPDLLFRSAREGRANADKIAAAFSIAEHYLRERYPDVTSDLPTIPIADLEGELSLRMLEEFASQTRDHFGIDQDSMIPNLTTVLNNHGILVTSLPDYVVEGTNFDGVSTPTDSTLRIIALNQQRSGDRYRFSLAHELAHLILHANTLRSDKSQMEKEANIFAASFLMPRALLTPVITPELTLKDYAELKAQWGYSIQAIVRRAHELELIDYKRYRSLRMQIAGRGWNINEPVDVLLENVYIDPIDLLSNNIKKHQSTNEGLATVTSLHKQ”, the “soluble on expression in E. coli” value was “not soluble”. For “MCEQCGKCKCGECTAPRTLPSCLACNRQCLCSAESMVEYGTCMCLVKGIFYHCSNDDEGDSYSDNPCSCSQSHCCSRYLCMGAMSLFLPCLLCYPPAKGCLKLCRRCYDWIHRPGCRCKNSNTVYCKLESCPSRGQGKPSLEHHHHHH”, the “soluble on expression in E. coli” value was “not soluble”. In the case of “MSLAHRTVAMVLFNDVLLLDVTGPMDAFAIANRFLPAARQYRLLTLAEGQAVVRGSCGLKVVADRRLEDLPEAVDLLLVPGGPGAYDIALPGIERWLPKAVRQAKRFGAICTGVFLLGRAGLLNGYRCTTHWNYVERLAQAFPEAKVETEQIYVMDRCLITSGGITAGIDLALAVVAEDHGKALALEVAKVLLVARHRQGGQTPYGPLLAAVPRDDSPIARVQAYIVDHIEQAFTVQKMAELVAMSGRNFARTFLREVGITPLQYLQNARIDRTRKLLECGDLPMKVVAAQCGFGSDRHMRKVFFERIGMTPAQYRAQFGGEGHHHHHH”, the “soluble on expression in E. coli” value is reported as “soluble”. For “MGSDKIHHHHHHEIMTRENNDQETLKLIQENKLQAEGNIFANVSALKDQNKRFQDECHSEKKQFGIKVEETTAQNNDEVLKESAQTNHIKLGNQQNKLTHESRIMALKEGNTVTKIHVGQAQEKDRKETNFIAAVNRMIQAGRDLPETVDSLEGHTLKLRYGSDASALESDIGLCEIIVSSINRKISKLQDSCIDLSNYAIADHRMVQEMQKNALGINESVRRIQSHLTQFRVSLSDNPITNSMELYKKVQTESHSLSTKINSMPVVTETNHAVAYLRKQRETLALNLPTVA”, the “soluble on expression in E. coli” value was “not soluble”. In the case of “MTSITPVTLANCEDEPIHVPGAIQPHGALVTLRADGMVLAASENIQALLGFVASPGSYLTQEQVGPEVLRMLEEGLTGNGPWSNSVETRIGEHLFDVIGHSYKEVFYLEFEIRTADTLSITSFTLNAQRIIAQVQLHNDTASLLSNVTDELRRMTGYDRVMAYRFRHDDSGEVVAESRREDLESYLGQRYPASDIPAQARRLYIQNPIRLIADVAYTPMRVFPALNPETNESFDLSYSVLRSVSPIHCEYLTNMGVRASMSISIVVGGKLWGLFSCHHMSPKLIPYPVRMSFQIFSQVCSAIVERLEQGRIAELLRVSTERRLALARRARDADDLFGALAHPDDGIAALIPCDGALVMLGGRTLSIRGDFERQAGNVLQRLQRDPERDIYHTDNWPQPSEDSPDGGDCCGVLAIRFHRQESGWIFWFRHEEVHRIRWGGKPEKLLTIGPSGPRLTPRGSFEAWEEVVRGHSTPWSETDLAIAEKLRLDLMELCLNHALEHHHHHH”, the “soluble on expression in E. coli” value is reported as “soluble”. For “MSLDQQSKEQLNIREMTKEDVPQVFDLERRSFNDSSWTIDAFYHEIEQNNFAKYFVLEFEQQIIGYLGLWIVIDQAQITTVAIDDNYRGYGLGQMLLKYGINYASHTCDVMSLEVRVNNKVAQHVYENLGFQYGGKRKNYYGEGEDAMVMWVNLNDEGHHHHHH”, the “soluble on expression in E. coli” value was “soluble”. For “GSRRLLEETLAPFRLNHDQLAAVQAQMRKAMAKGLRGEASSLRMLPTFVRATPDGSERGDFLALDLGGTNFRVLLVRVTTGVQITSEIYSIPETVAQGSGQQLFDHIVDCIVDFQQKQGLSGQSLPLGFTFSFPCRQLGLDQGILLNWTKGFKASDCEGQDVVSLLREAITRRQAVELNVVAIVNDTVGTMMSCGYEDPRCEIGLIVGTGTNACYMEELRNVAGVPGDSGRMCINMEWGAFGDDGSLAMLSTRFDASVDQASINPGKQRFEKMISGMYLGEIVRHILLHLTSLGVLFRGQQIQRLQTRDIFKTKFLSEIESDSLALRQVRAILEDLGLPLTSDDALMVLEVCQAVSQRAAQLCGAGVAAVVEKIRENRGLEELAVSVGVDGTLYKLHPRFSSLVAATVRELAPRCVVTFLQSEDGSGKGAALVTAVACRLAQLTR”, the “soluble on expression in E. coli” value was “soluble”. For “MKQPFTQAIENAELAIRNADERNDIFSELLEGLGVGPVAGEVLLGGLNASPKLMQHAEQELIEEVQRRRQQQHQLQGVQGKRRKRPTMMRGMVILEHHHHHH”, the “soluble on expression in E. coli” value was “not soluble”. In the case of “GPGSMSEELILQWAKRVSDAEEELHRMEEDINAVKQQRKLLKADIRKYEDVVASEKCDLLTSLERVEAQAKDLGAQCEATLTEKDRVEAEYMATLDAYENLHFLVREIKDAEEHLQSRDDLEACLQRESVTWAEEEHTLRRKLHELQQQQAQARRAQEAEVRELEAQLSNVEQRQRDERAGRCVEVAQAARRVVHSSRQPTPASPKPVTSAEEDAFVSANAGGAMPIRSAPLKSCLKTPVNGSTSGNAAPTAPRHTTAASAPVSRCASQSLVSDAAASGVQRQGVDGGDQPSLRLLQEMRAYSYGAPCKAGARKREFLGDATNNQ”, the “soluble on expression in E. coli” value is reported as “soluble”.
